According to US20140274782A1, “AFFINITY REAGENTS AND METHODS FOR DETECTION, PURIFICATION, AND PROTEOMIC ANALYSIS OF METHYLATED PROTEINS” (The Board of Trustees of the Leland Stanford Junior …, priority 2013, published 2014):

B1: HNRNPUL1 (protein, UniProt Q9BUJ2 1-856, looked up)
Heterogeneous nuclear …: MDVRRLKVNELREELQRRGLDTRGLKAELAERLQAALEAEEPDDERELDADDEPGRPGHINEEVETEGGSELEGTAQPPPPGLQPHAEPGGYSGPDGHYAMDNITRQNQFYDTQVIKQENESGYERRPLEMEQQQAYRPEMKTEMKQGAPTSFLPPEASQLKPDRQQFQSRKRPYEENRGRGYFEHREDRRGRSPQPPAEEDEDDFDDTLVAIDTYNCDLHFKVARDRSSGYPLTIEGFAYLWSGARASYGVRRGRVCFEMKINEEISVKHLPSTEPDPHVVRIGWSLDSCSTQLGEEPFSYGYGGTGKKSTNSRFENYGDKFAENDVIGCFADFECGNDVELSFTKNGKWMGIAFRIQKEALGGQALYPHVLVKNCAVEFNFGQRAEPYCSVLPGFTFIQHLPLSERIRGTVGPKSKAECEILMMVGLPAAGKTTWAIKHAASNPSKKYNILGTNAIMDKMRVMGLRRQRNYAGRWDVLIQQATQCLNRLIQIAARKKRNYILDQTNVYGSAQRRKMRPFEGFQRKAIVICPTDEDLKDRTIKRTDEEGKDVPDHAVLEMKANFTLPDVGDFLDEVLFIELQREEADKLVRQYNEEGRKAGPPPEKRFDNRGGGGFRGRGGGGGFQRYENRGPPGGNRGGFQNRGGGSGGGGNYRGGFNRSGGGGYSQNRWGNNNRDNNNSNNRGSYNRAPQQQPPPQQPPPPQPPPQQPPPPPSYSPARNPPGASTYNKNSNIPGSSANTSTPTVSSYSPPQPSYSQPPYNQGGYSQGYTAPPPPPPPPPAYNYGSYGGYNPAPYTPPPPPTAQTYPQPSYNQYQQYAQQWNQYYQNQGQWPPYYGNYDYGSYSGNTQGGTSTQ
B2: ADAR (protein, UniProt P55265 1-1226, looked up)
Double-stranded RNA-specific …: MNPRQGYSLSGYYTHPFQGYEHRQLRYQQPGPGSSPSSFLLKQIEFLKGQLPEAPVIGKQTPSLPPSLPGLRPRFPVLLASSTRGRQVDIRGVPRGVHLRSQGLQRGFQHPSPRGRSLPQRGVDCLSSHFQELSIYQDQEQRILKFLEELGEGKATTAHDLSGKLGTPKKEINRVLYSLAKKGKLQKEAGTPPLWKIAVSTQAWNQHSGVVRPDGHSQGAPNSDPSLEPEDRNSTSVSEDLLEPFIAVSAQAWNQHSGVVRPDSHSQGSPNSDPGLEPEDSNSTSALEDPLEFLDMAEIKEKICDYLFNVSDSSALNLAKNIGLTKARDINAVLIDMERQGDVYRQGTTPPIWHLTDKKRERMQIKRNTNSVPETAPAAIPETKRNAEFLTCNIPTSNASNNMVTTEKVENGQEPVIKLENRQEARPEPARLKPPVHYNGPSKAGYVDFENGQWATDDIPDDLNSIRAAPGEFRAIMEMPSFYSHGLPRCSPYKKLTECQLKNPISGLLEYAQFASQTCEFNMIEQSGPPHEPRFKFQVVINGREFPPAEAGSKKVAKQDAAMKAMTILLEEAKAKDSGKSEESSHYSTEKESEKTAESQTPTPSATSFFSGKSPVTTLLECMHKLGNSCEFRLLSKEGPAHEPKFQYCVAVGAQTFPSVSAPSKKVAKQMAAEEAMKALHGEATNSMASDNQPEGMISESLDNLESMMPNKVRKIGELVRYLNTNPVGGLLEYARSHGFAAEFKLVDQSGPPHEPKFVYQAKVGGRWFPAVCAHSKKQGKQEAADAALRVLIGENEKAERMGFTEVTPVTGASLRRTMLLLSRSPEAQPKTLPLTGSTFHDQIAMLSHRCFNTLTNSFQPSLLGRKILAAIIMKKDSEDMGVVVSLGTGNRCVKGDSLSLKGETVNDCHAEIISRRGFIRFLYSELMKYNSQTAKDSIFEPAKGGEKLQIKKTVSFHLYISTAPCGDGALFDKSCSDRAMESTESRHYPVFENPKQGKLRTKVENGEGTIPVESSDIVPTWDGIRLGERLRTMSCSDKILRWNVLGLQGALLTHFLQPIYLKSVTLGYLFSQGHLTRAICCRVTRDGSAFEDGLRHPFIVNHPKVGRVSIYDSKRQSGKTKETSVNWCLADGYDLEILDGTRGTVDGPRNELSRVSKKNIFLLFKKLCSFRYRRDLLRLSYGEAKKAARDYETAKNYFKKGLKDMGYGNWISKPQEEKNFYLCPV
B3: LIG3 (protein, UniProt P49916 43-1009, looked up)
DNA ligase 3: LLHGHPLFLRRKPVLSFQGSHLRSRATYLVFLPGLHVGLCSGPCEMAEQRFCVDYAKRGTAGCKKCKEKIVKGVCRIGKVVPNPFSESGGDMKEWYHIKCMFEKLERARATTKKIEDLTELEGWEELEDNEKEQITQHIADLSSKAAGTPKKKAVVQAKLTTTGQVTSPVKGASFVTSTNPRKFSGFSAKPNNSGEAPSSPTPKRSLSSSKCDPRHKDCLLREFRKLCAMVADNPSYNTKTQIIQDFLRKGSAGDGFHGDVYLTVKLLLPGVIKTVYNLNDKQIVKLFSRIFNCNPDDMARDLEQGDVSETIRVFFEQSKSFPPAAKSLLTIQEVDEFLLRLSKLTKEDEQQQALQDIASRCTANDLKCIIRLIKHDLKMNSGAKHVLDALDPNAYEAFKASRNLQDVVERVLHNAQEVEKEPGQRRALSVQASLMTPVQPMLAEACKSVEYAMKKCPNGMFSEIKYDGERVQVHKNGDHFSYFSRSLKPVLPHKVAHFKDYIPQAFPGGHSMILDSEVLLIDNKTGKPLPFGTLGVHKKAAFQDANVCLFVFDCIYFNDVSLMDRPLCERRKFLHDNMVEIPNRIMFSEMKRVTKALDLADMITRVIQEGLEGLVLKDVKGTYEPGKRHWLKVKKDYLNEGAMADTADLVVLGAFYGQGSKGGMMSIFLMGCYDPGSQKWCTVTKCAGGHDDATLARLQNELDMVKISKDPSKIPSWLKVNKIYYPDFIVPDPKKAAVWEITGAEFSKSEAHTADGISIRFPRCTRIRDDKDWKSATNLPQLKELYQLSKEKADFTVVAGDEGSSTTGGSSEENKGPSGSAVSRKAPSKPSASTKKAEGKLSNSNSKDGNMQTAKPSAMKVGEKLATKSSPVKVGEKRKAADETLCQTKVLLDIFTGVRLYLPPSTPDFSRLRRYFVAFDGDLVQEFDMTSATHVLGSRDKNPAAQQVSPEWIWACIRKRRLVAPC

Columns and labels:
3×MBT domain of L3MBTL1 = assay: Triple SILAC pull-down, 3xMBT/3xMBTD355N ratio (cytoplasmic, nuclear and chromatin fractions of 293T cells); assay type: binding, human; conditions: SILAC ratio, pull-down 3xMBT vs 3xMBTD355N; for 3xMBT/D355N UNC Heavy: experiment with UNC0638 in heavy SILAC media; for 3xMBT/D355N UNC Light: experiment with UNC0638 in light SILAC media;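 as to all read-outs here: proteins quantified with MaxQuant, requiring at least two unique peptides and quantification in both label directions, normalized to the mean of proteins from a digested loading control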
G9a and GLP = biological target: T1, G9a and GLP (Homo sapiens, UniProt Q96KQ7+Q9H9B1); assay: Triple SILAC pull-down after UNC0638 treatment of 293T cells, DMSO/UNC0638 ratio of protein captured by 3×MBT; assay type: cell-based; set-up: endogenous in cells; host or cells: HEK 293T; conditions: for Relative to UNC0638 UNC Heavy / Relative to UNC0638 UNC Light: SILAC ratio DMSO/UNC0638 of protein pulled down with 3xMBT; for Relative to UNC0638 UNC Heavy: UNC0638 in heavy SILAC media; for Relative to UNC0638 UNC Light: UNC0638 in light SILAC media; for Relative to UNC0638 Average: average of UNC Light and UNC Heavy experiments;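 as to all read-outs here: mass spectrometry (Q-Exactive) SILAC quantitation, DMSO/UNC0638 ratio computed after subtracting 3×MBTD355N mutant pull-down background, only proteins with at least twofold 3×MBT over mutant signal considered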
T1 sequence (Q96KQ7 2-1210 limits assumed): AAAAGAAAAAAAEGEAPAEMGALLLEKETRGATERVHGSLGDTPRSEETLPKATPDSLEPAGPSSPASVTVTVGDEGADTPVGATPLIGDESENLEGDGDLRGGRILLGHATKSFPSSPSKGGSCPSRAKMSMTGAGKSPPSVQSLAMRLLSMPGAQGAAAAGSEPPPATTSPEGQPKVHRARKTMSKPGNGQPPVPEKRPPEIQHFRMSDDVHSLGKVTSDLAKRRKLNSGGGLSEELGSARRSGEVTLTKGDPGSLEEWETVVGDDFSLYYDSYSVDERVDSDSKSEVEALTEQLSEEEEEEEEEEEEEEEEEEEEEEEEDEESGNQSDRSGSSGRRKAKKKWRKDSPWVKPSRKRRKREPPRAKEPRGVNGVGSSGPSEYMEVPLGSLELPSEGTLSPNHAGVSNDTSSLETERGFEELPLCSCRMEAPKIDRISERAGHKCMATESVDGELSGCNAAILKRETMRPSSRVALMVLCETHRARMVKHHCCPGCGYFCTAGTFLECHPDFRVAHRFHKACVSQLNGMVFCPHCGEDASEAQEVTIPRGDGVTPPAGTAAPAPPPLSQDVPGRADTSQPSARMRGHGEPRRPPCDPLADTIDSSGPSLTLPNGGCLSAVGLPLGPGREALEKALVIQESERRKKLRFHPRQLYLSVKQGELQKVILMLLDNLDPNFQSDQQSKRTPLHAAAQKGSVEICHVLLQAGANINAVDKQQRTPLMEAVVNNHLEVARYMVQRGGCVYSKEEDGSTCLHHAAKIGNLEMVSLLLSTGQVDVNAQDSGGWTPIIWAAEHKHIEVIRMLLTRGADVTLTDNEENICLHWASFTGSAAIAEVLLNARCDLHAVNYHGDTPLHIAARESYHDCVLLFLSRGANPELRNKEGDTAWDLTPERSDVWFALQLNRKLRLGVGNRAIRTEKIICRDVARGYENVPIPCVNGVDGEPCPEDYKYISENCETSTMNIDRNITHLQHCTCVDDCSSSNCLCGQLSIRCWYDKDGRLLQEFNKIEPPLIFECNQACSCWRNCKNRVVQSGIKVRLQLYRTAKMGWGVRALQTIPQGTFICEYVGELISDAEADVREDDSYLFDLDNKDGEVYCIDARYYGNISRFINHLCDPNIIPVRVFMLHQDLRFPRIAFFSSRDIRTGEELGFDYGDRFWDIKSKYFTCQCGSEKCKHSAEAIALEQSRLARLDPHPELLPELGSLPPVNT
T1 sequence (Q9H9B1 2-1298 limits assumed): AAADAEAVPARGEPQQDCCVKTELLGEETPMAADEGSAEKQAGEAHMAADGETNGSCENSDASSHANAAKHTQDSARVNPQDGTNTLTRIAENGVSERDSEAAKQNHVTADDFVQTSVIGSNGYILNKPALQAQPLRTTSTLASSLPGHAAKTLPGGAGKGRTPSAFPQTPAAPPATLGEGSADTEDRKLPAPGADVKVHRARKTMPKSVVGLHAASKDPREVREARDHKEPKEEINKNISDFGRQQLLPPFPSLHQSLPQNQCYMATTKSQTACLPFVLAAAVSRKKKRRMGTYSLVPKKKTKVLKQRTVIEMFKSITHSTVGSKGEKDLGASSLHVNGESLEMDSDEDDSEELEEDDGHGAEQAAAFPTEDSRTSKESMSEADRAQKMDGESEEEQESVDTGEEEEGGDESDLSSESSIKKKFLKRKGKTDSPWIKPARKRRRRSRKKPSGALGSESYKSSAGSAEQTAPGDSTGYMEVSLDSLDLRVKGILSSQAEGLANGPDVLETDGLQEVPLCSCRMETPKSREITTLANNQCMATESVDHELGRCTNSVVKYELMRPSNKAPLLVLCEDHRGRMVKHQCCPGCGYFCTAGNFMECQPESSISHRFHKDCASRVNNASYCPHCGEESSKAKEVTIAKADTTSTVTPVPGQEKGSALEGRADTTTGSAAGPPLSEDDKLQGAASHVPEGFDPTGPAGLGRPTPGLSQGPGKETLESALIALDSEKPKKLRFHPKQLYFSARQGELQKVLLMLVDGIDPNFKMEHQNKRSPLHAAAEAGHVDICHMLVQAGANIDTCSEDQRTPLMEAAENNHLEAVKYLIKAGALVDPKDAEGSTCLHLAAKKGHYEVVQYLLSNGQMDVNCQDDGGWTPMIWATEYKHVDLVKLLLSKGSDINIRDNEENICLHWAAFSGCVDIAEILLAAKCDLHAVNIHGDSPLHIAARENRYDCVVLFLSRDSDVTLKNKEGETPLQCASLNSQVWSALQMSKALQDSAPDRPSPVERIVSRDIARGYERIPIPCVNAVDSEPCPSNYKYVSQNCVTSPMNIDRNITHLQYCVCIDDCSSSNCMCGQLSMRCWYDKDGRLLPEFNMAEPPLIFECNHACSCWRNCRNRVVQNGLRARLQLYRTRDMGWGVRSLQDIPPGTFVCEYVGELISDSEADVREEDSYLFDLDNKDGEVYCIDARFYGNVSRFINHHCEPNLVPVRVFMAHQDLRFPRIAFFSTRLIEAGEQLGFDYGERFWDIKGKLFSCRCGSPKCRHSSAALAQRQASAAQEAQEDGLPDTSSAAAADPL

Molecule | 3xMBT/D355N UNC Heavy (3×MBT domain of L3MBTL1) [log base 2] | 3xMBT/D355N UNC Light (3×MBT domain of L3MBTL1) [log base 2] | Relative to UNC0638 UNC Heavy (G9a and GLP) [log base 2] | Relative to UNC0638 UNC Light (G9a and GLP) [log base 2] | Relative to UNC0638 Average (G9a and GLP) [log base 2]
B1 | 2.97 | 3.07 | −0.17 | 0.61 | 0.22
B2 | 2.00 | 2.47 | 0.37 | 0.07 | 0.22
B3 | 2.43 | 2.16 | 0.26 | 0.18 | 0.22
